Assay results taken from patent publication US20240398973A1, “ENGINEERED ANTIBODY COMPOUNDS AND CONJUGATES THEREOF” (Eli Lilly and Company, priority 2017, published 2024).
One block for each substance: values may come before it. Where no end group is shown, it is not given here.

Tests used:
human primary PMNs = test: PMN reactive oxygen species (ROS) production, luminol-amplified chemiluminescence; assay type: cell-based; conditions: relative to 10 uM fMLF, AUC 5 minutes (Table 8a)
Experimental: Production of ROS by human primary PMNs is measured using luminol-amplified chemiluminescence. Following isolation, PMNs are suspended at 1×10^6 cells/ml in HBSS containing calcium and magnesium (Gibco #14025-092) supplemented with 0.25% human serum albumin (Gemini Bio producst #800-124) and 50 uM Luminol (SigmaAldrich #123072-2.5G). 100 μl of cell suspension (1×10^5 total cells) is then distributed into each well of a 96-well plate suitable for fluorescence measurement (Greiner #655098) and temperature equilibrated to 37° C. for 5 minutes. Following equilibration, 10× solution of antibody conjugate is applied to the wells, achieving a 1× final concentration.
Immediately after the addition of antibody conjugate, chemiluminescence signal is recorded in a luminometer maintained at 37° C. with 0.01 seconds dwell time per well, 20 seconds total time between sequential plate readings and 45 minutes total run time (PerkinElmer EnVision Multilabel Plate Reader).

[1] = tested on: primary human polymorphonuclear neutrophil (PMN); test: PMN chemotaxis (transwell, modified Boyden chamber); assay type: cell-based; conditions: for Relative Migration (PMN migration): relative to 10 nM fMLF (Table 4a)
Experimental: Chemotaxis is measured by observing primary human polymorphonuclear neutrophil (PMN) migration across transwell membranes (Corning #3415) towards antibody conjugates in a modified Boyden chamber assay. Approximately 2-4×10^5 cells from neutrophil-enriched preparations are seeded in upper transwell chambers on membranes with 3.0 um pores. The lower transwell chambers contain solutions of buffer alone and fMLF (N-formyl-Met-Leu-Phe peptide as positive control) and experimental antibody bioconjugates. […] Cell numbers are determined using standard curves. All data are transformed to percent relative to the maximal fMLF response for each individual experiment.

[2] = target: formyl peptide receptor 1 (FPR1) on primary human polymorphonuclear neutrophils (human) (UniProt P21462); test: cell-based or functional assay

Substance: H-Met-Leu-Phe-Lys (Mal-PEG12-OH (H-MLFK; not fully specified (residue 4)) [Peptide-'844]
- ROS Production by PMNs (human primary PMNs; 1 pM): 7.4 percentage
- ROS Production by PMNs (human primary PMNs; 10 pM): 7.5 percentage
- ROS Production by PMNs (human primary PMNs; 100 pM): 7.5 percentage
- ROS Production by PMNs (human primary PMNs; 1 nM): 8.4 percentage
- ROS Production by PMNs (human primary PMNs; 10 nM): 7.8 percentage
- ROS Production by PMNs (human primary PMNs; 100 nM): 8.2 percentage
- ROS Production by PMNs (human primary PMNs; 1 μM): 8.7 percentage
- ROS Production by PMNs (human primary PMNs; 10 μM): 23.5 percentage
- concentration at which PMN migration is maximally induced [1]: 1 µM
- Relative Migration (PMN migration) ([1]; 1 pM): 1.4%
- Relative Migration (PMN migration) ([1]; 10 pM): 4.1%
- Relative Migration (PMN migration) ([1]; 100 pM): 0.4%
- Relative Migration (PMN migration) ([1]; 1 nM): 11.1%
- Relative Migration (PMN migration) ([1]; 10 nM): 2.9%
- Relative Migration (PMN migration) ([1]; 100 nM): 20.4%
- Relative Migration (PMN migration) ([1]; 1 uM): 114.2%
- Relative Migration (PMN migration) ([1]; 10 uM): 110.4%
- fold less potent at inducing PMN migration than Peptide-'183 ([1]; dose response differences): 1000 fold

- EC50 of PMN ROS production [2]: 103 nM
- PMN ROS production at 1 pM (percent relative to 10 uM fMLF) [2]: 6.9%
- PMN ROS production at 10 pM (percent relative to 10 uM fMLF) [2]: 7.4%
- PMN ROS production at 100 pM (percent relative to 10 uM fMLF) [2]: 7.5%
- PMN ROS production at 1 nM (percent relative to 10 uM fMLF) [2]: 8.8%
- PMN ROS production at 10 nM (percent relative to 3000 nM fMLF) [2]: 3.6%
- PMN ROS production at 10 nM (percent relative to 10 uM fMLF) [2]: 31.3%
- PMN ROS production at 30 nM (percent relative to 3000 nM fMLF) [2]: 12.2%
- PMN ROS production at 100 nM (percent relative to 3000 nM fMLF) [2]: 49.9%
- PMN ROS production at 100 nM (percent relative to 10 uM fMLF) [2]: 76.6%
- PMN ROS production at 300 nM (percent relative to 3000 nM fMLF) [2]: 76.2%
- PMN ROS production at 1 µM (percent relative to 10 uM fMLF) [2]: 94%
- PMN ROS production at 1000 nM (percent relative to 3000 nM fMLF) [2]: 94.3%
- PMN ROS production at 3000 nM (percent relative to 3000 nM fMLF) [2]: 99.5%
- PMN ROS production at 10 µM (percent relative to 10 uM fMLF) [2]: 107%
- PMN ROS production at 10000 nM (percent relative to 3000 nM fMLF) [2]: 89.1%
- PMN migration at 1 nM (percent relative to 100 nM fMLF) [2]: 150%
- PMN migration at 3 nM (percent relative to 100 nM fMLF) [2]: 167%
- PMN migration at 10 nM (percent relative to 100 nM fMLF) [2]: 145%
- PMN migration at 30 nM (percent relative to 100 nM fMLF) [2]: 118%
- PMN migration at 100 nM (percent relative to 100 nM fMLF) [2]: 84.2%
- PMN migration at 300 nM (percent relative to 100 nM fMLF) [2]: 50.4%
- PMN migration at 1000 nM (percent relative to 100 nM fMLF) [2]: 33.6%
Substance: Peptide-'183, formyl-Met-Leu-Phe-Lys(Mal-PEG12)-OH with hydrolyzed maleimido group (unconjugated peptide)

Substance: Tmab-G1-fMIFL-HC124C-378C-(PEG3) (antibody)
- EC50 of PMN ROS production [2]: 31.3 nM

Substance: Tmab-G1-fMIFL-HC124C-378C-(PEG6) (antibody)
- EC50 of PMN ROS production [2]: 13.6 nM

Substance: Tmab-G1-fMIFL-HC124C-378C-(PEG12) (antibody)
- EC50 of PMN ROS production [2]: 36.4 nM
